Article PMC10786891, “Massively parallel profiling of RNA-targeting CRISPR-Cas13d”

biological target: T1, EsCas13d, nuclease-dead (Eubacterium siraeum, UniProt B0MS50, R295A;H300A;R849A;H854A); assay: crRNA (strand 1, pre-loaded); Mg2+; 40 mM Tris-HCl pH 7.5, 150 mM NaCl, 6 mM MgCl2, 1 mM DTT, 0.1% Tween-20, 0.2 mg/ml BSA; 25 C; 10 min per concentration, then washed; conditions: tags: His6-TwinStrep-SUMO cleaved; N-terminal SNAP kept (SNAP-Surface 488); label: 3' end held by stalled T7 RNA polymerase
T1 sequence: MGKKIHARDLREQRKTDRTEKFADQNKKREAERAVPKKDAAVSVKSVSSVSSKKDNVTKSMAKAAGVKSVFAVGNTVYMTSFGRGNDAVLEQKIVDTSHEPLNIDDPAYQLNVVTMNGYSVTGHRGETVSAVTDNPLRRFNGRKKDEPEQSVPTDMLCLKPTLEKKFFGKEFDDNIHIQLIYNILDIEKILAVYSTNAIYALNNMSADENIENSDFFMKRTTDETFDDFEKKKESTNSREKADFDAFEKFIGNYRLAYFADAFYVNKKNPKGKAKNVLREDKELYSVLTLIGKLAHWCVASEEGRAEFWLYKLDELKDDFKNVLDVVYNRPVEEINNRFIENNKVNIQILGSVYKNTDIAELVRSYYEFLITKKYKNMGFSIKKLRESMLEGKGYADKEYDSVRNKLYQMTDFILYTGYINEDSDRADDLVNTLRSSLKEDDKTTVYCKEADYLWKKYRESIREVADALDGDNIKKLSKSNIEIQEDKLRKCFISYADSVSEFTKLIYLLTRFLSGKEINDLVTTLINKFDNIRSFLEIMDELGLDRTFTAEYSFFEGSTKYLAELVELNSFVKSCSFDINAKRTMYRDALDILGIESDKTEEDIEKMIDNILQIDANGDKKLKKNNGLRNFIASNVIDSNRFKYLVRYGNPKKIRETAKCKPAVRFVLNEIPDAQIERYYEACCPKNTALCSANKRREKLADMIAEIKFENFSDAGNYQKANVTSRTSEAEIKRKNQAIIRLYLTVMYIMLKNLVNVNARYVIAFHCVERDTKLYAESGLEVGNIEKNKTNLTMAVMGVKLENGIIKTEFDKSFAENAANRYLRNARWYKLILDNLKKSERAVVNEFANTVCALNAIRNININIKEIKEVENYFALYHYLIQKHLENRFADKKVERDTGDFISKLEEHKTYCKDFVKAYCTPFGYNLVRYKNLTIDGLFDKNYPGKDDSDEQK

| Binder | Kd [nM] |
| --- | --- |
| target 2 MT 5'PFS CUU 3'PFS AUU (mixed) RNA 1: CACCCGUGCAAAAUUGCAGGGGUCUAAAACCUUCUCCAAAUUGUUUCAUCCU RNA 2: GGGAAUGGAUCCACAUCUACGAAUUCCUUAGGAUGAAACAAUUUGGAGAAGAUUAGAUCGGAAGAGCACACGU | 3.9 ± 0.4 |
| target 2 MT 5'PFS GGC 3'PFS CAU (mixed) RNA 1: CACCCGUGCAAAAUUGCAGGGGUCUAAAACCUUCUCCAAAUUGUUUCAUCCU RNA 2: GGGAAUGGAUCCACAUCUACGAAUUCGGCAGGAUGAAACAAUUUGGAGAAGCAUAGAUCGGAAGAGCACACGU | 14.4 ± 2 |
| target 2 MT 5'PFS AUA 3'PFS UAC (mixed) RNA 1: CACCCGUGCAAAAUUGCAGGGGUCUAAAACCUUCUCCAAAUUGUUUCAUCCU RNA 2: GGGAAUGGAUCCACAUCUACGAAUUCAUAAGGAUGAAACAAUUUGGAGAAGUACAGAUCGGAAGAGCACACGU | 7.2 ± 1.6 |
| target 2 MT 5'PFS GUA 3'PFS UCG (mixed) RNA 1: CACCCGUGCAAAAUUGCAGGGGUCUAAAACCUUCUCCAAAUUGUUUCAUCCU RNA 2: GGGAAUGGAUCCACAUCUACGAAUUCGUAAGGAUGAAACAAUUUGGAGAAGUCGAGAUCGGAAGAGCACACGU | 9.5 ± 0.7 |
| target 2 MT 5'PFS AUA 3'PFS UAA (mixed) RNA 1: CACCCGUGCAAAAUUGCAGGGGUCUAAAACCUUCUCCAAAUUGUUUCAUCCU RNA 2: GGGAAUGGAUCCACAUCUACGAAUUCAUAAGGAUGAAACAAUUUGGAGAAGUAAAGAUCGGAAGAGCACACGU | 5.5 ± 1.1 |
| target 2 MT 5'PFS GUA 3'PFS AAU (mixed) RNA 1: CACCCGUGCAAAAUUGCAGGGGUCUAAAACCUUCUCCAAAUUGUUUCAUCCU RNA 2: GGGAAUGGAUCCACAUCUACGAAUUCGUAAGGAUGAAACAAUUUGGAGAAGAAUAGAUCGGAAGAGCACACGU | 5.8 ± 0.6 |
| target 2 MT 5'PFS AGU 3'PFS UCC (mixed) RNA 1: CACCCGUGCAAAAUUGCAGGGGUCUAAAACCUUCUCCAAAUUGUUUCAUCCU RNA 2: GGGAAUGGAUCCACAUCUACGAAUUCAGUAGGAUGAAACAAUUUGGAGAAGUCCAGAUCGGAAGAGCACACGU | ~51 |
| target 2 MT 5'PFS AUA 3'PFS UAU (mixed) RNA 1: CACCCGUGCAAAAUUGCAGGGGUCUAAAACCUUCUCCAAAUUGUUUCAUCCU RNA 2: GGGAAUGGAUCCACAUCUACGAAUUCAUAAGGAUGAAACAAUUUGGAGAAGUAUAGAUCGGAAGAGCACACGU | 7.1 ± 1.4 |
| target 2 MT 5'PFS AGU 3'PFS UCU (mixed) RNA 1: CACCCGUGCAAAAUUGCAGGGGUCUAAAACCUUCUCCAAAUUGUUUCAUCCU RNA 2: GGGAAUGGAUCCACAUCUACGAAUUCAGUAGGAUGAAACAAUUUGGAGAAGUCUAGAUCGGAAGAGCACACGU | 21.3 ± 3.4 |
| target 2 MT 5'PFS GUA 3'PFS AAG (mixed) RNA 1: CACCCGUGCAAAAUUGCAGGGGUCUAAAACCUUCUCCAAAUUGUUUCAUCCU RNA 2: GGGAAUGGAUCCACAUCUACGAAUUCGUAAGGAUGAAACAAUUUGGAGAAGAAGAGAUCGGAAGAGCACACGU | 7 ± 0.6 |
| target 1 insC 3' of 16,insG 3' of 7 (mixed) RNA 1: CACCCGUGCAAAAAUGCAGGGGUCUAAAACUGAGCGGAUAACCUCUCUAUGG RNA 2: GGGAAUGGAUCCACAUCUACGAAUUCGUACCAUAGACGAGGUUAUCGCGCUCACCGAGAUCGGAAGAGCACACGU | 66 ± 14 |
| target 2 MT 5'PFS GUA 3'PFS AAA (mixed) RNA 1: CACCCGUGCAAAAUUGCAGGGGUCUAAAACCUUCUCCAAAUUGUUUCAUCCU RNA 2: GGGAAUGGAUCCACAUCUACGAAUUCGUAAGGAUGAAACAAUUUGGAGAAGAAAAGAUCGGAAGAGCACACGU | 5.5 ± 0.7 |
| target 2 MT 5'PFS AUU 3'PFS CGC (mixed) RNA 1: CACCCGUGCAAAAUUGCAGGGGUCUAAAACCUUCUCCAAAUUGUUUCAUCCU RNA 2: GGGAAUGGAUCCACAUCUACGAAUUCAUUAGGAUGAAACAAUUUGGAGAAGCGCAGAUCGGAAGAGCACACGU | 7.8 ± 0.6 |
| target 2 MT 5'PFS UAG 3'PFS AGG (mixed) RNA 1: CACCCGUGCAAAAUUGCAGGGGUCUAAAACCUUCUCCAAAUUGUUUCAUCCU RNA 2: GGGAAUGGAUCCACAUCUACGAAUUCUAGAGGAUGAAACAAUUUGGAGAAGAGGAGAUCGGAAGAGCACACGU | 2.74 ± 0.24 |
| target 2 MT 5'PFS UAG 3'PFS AGA (mixed) RNA 1: CACCCGUGCAAAAUUGCAGGGGUCUAAAACCUUCUCCAAAUUGUUUCAUCCU RNA 2: GGGAAUGGAUCCACAUCUACGAAUUCUAGAGGAUGAAACAAUUUGGAGAAGAGAAGAUCGGAAGAGCACACGU | 2.53 ± 0.33 |
| target 2 MT 5'PFS UAG 3'PFS AGC (mixed) RNA 1: CACCCGUGCAAAAUUGCAGGGGUCUAAAACCUUCUCCAAAUUGUUUCAUCCU RNA 2: GGGAAUGGAUCCACAUCUACGAAUUCUAGAGGAUGAAACAAUUUGGAGAAGAGCAGAUCGGAAGAGCACACGU | 1.91 ± 0.21 |
| target 2 MT 5'PFS CAU 3'PFS CAG (mixed) RNA 1: CACCCGUGCAAAAUUGCAGGGGUCUAAAACCUUCUCCAAAUUGUUUCAUCCU RNA 2: GGGAAUGGAUCCACAUCUACGAAUUCCAUAGGAUGAAACAAUUUGGAGAAGCAGAGAUCGGAAGAGCACACGU | 3.25 ± 0.3 |
| target 2 MT 5'PFS AAA 3'PFS UAC (mixed) RNA 1: CACCCGUGCAAAAUUGCAGGGGUCUAAAACCUUCUCCAAAUUGUUUCAUCCU RNA 2: GGGAAUGGAUCCACAUCUACGAAUUCAAAAGGAUGAAACAAUUUGGAGAAGUACAGAUCGGAAGAGCACACGU | ~6.7 |
| target 2 MT 5'PFS AGG 3'PFS AGU (mixed) RNA 1: CACCCGUGCAAAAUUGCAGGGGUCUAAAACCUUCUCCAAAUUGUUUCAUCCU RNA 2: GGGAAUGGAUCCACAUCUACGAAUUCAGGAGGAUGAAACAAUUUGGAGAAGAGUAGAUCGGAAGAGCACACGU | 4.04 ± 0.32 |
| target 2 MT 5'PFS CAC 3'PFS CCC (mixed) RNA 1: CACCCGUGCAAAAUUGCAGGGGUCUAAAACCUUCUCCAAAUUGUUUCAUCCU RNA 2: GGGAAUGGAUCCACAUCUACGAAUUCCACAGGAUGAAACAAUUUGGAGAAGCCCAGAUCGGAAGAGCACACGU | 25 ± 10 |
| target 2 MT 5'PFS AUC 3'PFS CAG (mixed) RNA 1: CACCCGUGCAAAAUUGCAGGGGUCUAAAACCUUCUCCAAAUUGUUUCAUCCU RNA 2: GGGAAUGGAUCCACAUCUACGAAUUCAUCAGGAUGAAACAAUUUGGAGAAGCAGAGAUCGGAAGAGCACACGU | 80 ± 40 |
| target 1 insA 3' of 13,insC 3' of 10 (mixed) RNA 1: CACCCGUGCAAAAAUGCAGGGGUCUAAAACUGAGCGGAUAACCUCUCUAUGG RNA 2: GGGAAUGGAUCCACAUCUACGAAUUCGUACCAUAGAGAGAGUUCAUCCGCUCACCGAGAUCGGAAGAGCACACGU | 9.2 ± 0.9 |
| target 1 insU 3' of 22,insA 3' of 19 (mixed) RNA 1: CACCCGUGCAAAAAUGCAGGGGUCUAAAACUGAGCGGAUAACCUCUCUAUGG RNA 2: GGGAAUGGAUCCACAUCUACGAAUUCGUACUCAUAAGAGAGGUUAUCCGCUCACCGAGAUCGGAAGAGCACACGU | 80 ± 14 |
| target 2 MT 5'PFS CAC 3'PFS CCA (mixed) RNA 1: CACCCGUGCAAAAUUGCAGGGGUCUAAAACCUUCUCCAAAUUGUUUCAUCCU RNA 2: GGGAAUGGAUCCACAUCUACGAAUUCCACAGGAUGAAACAAUUUGGAGAAGCCAAGAUCGGAAGAGCACACGU | 4.5 ± 1.2 |
| target 2 MT 5'PFS GGG 3'PFS UUU (mixed) RNA 1: CACCCGUGCAAAAUUGCAGGGGUCUAAAACCUUCUCCAAAUUGUUUCAUCCU RNA 2: GGGAAUGGAUCCACAUCUACGAAUUCGGGAGGAUGAAACAAUUUGGAGAAGUUUAGAUCGGAAGAGCACACGU | 48 ± 12 |
| target 2 MT 5'PFS AUC 3'PFS CAU (mixed) RNA 1: CACCCGUGCAAAAUUGCAGGGGUCUAAAACCUUCUCCAAAUUGUUUCAUCCU RNA 2: GGGAAUGGAUCCACAUCUACGAAUUCAUCAGGAUGAAACAAUUUGGAGAAGCAUAGAUCGGAAGAGCACACGU | 78 ± 27 |
| target 2 MT 5'PFS GGG 3'PFS UUC (mixed) RNA 1: CACCCGUGCAAAAUUGCAGGGGUCUAAAACCUUCUCCAAAUUGUUUCAUCCU RNA 2: GGGAAUGGAUCCACAUCUACGAAUUCGGGAGGAUGAAACAAUUUGGAGAAGUUCAGAUCGGAAGAGCACACGU | 42 ± 15 |
| target 2 MT 5'PFS GGG 3'PFS UUA (mixed) RNA 1: CACCCGUGCAAAAUUGCAGGGGUCUAAAACCUUCUCCAAAUUGUUUCAUCCU RNA 2: GGGAAUGGAUCCACAUCUACGAAUUCGGGAGGAUGAAACAAUUUGGAGAAGUUAAGAUCGGAAGAGCACACGU | 14.9 ± 1.7 |
